Positions count from the first letter of the chain named. Names may count otherwise. Like-named read-outs stand apart in the source and are kept apart here.

Experiment [1] addresses T1, N11-14:V5:His (Drosophila, UniProt P07207 447-605).
T1 chain: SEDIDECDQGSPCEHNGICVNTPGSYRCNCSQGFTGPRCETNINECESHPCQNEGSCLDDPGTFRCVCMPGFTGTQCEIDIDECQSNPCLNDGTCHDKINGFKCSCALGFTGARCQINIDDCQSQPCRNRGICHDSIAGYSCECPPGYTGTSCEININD
Nature of the experiment: ELISA. (In an ELISA, binding on a coated surface is turned into a signal by an enzyme label.)

Experiment [2] has as its target T2, N21-30:Fc (Drosophila, UniProt P07207 827-1224).
T2 construct: also called Abruptex region; EGF repeat 21-30 region of Notch; source: Drosophila Schneider cells, transfected, secreted; purified from conditioned medium (Protein A beads); not shown: Fc (human IgG), C-terminal, kept
T2 sequence (looked up): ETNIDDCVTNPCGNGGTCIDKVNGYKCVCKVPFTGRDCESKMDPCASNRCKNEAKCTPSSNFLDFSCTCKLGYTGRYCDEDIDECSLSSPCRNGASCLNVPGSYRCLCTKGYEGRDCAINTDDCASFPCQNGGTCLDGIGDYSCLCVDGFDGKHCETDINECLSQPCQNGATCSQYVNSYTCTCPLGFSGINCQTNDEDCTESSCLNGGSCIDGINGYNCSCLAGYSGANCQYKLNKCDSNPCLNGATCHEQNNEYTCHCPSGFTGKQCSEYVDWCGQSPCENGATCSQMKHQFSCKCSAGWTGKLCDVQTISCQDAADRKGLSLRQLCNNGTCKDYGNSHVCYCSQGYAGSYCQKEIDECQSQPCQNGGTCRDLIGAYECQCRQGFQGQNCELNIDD
The experiment in a line: ELISA; competition: 10 ng (2.74 nM) N21-30:Fc or 100 ng (23.2 nM) Dl:Fc on adsorbed N11-20, with increasing amounts of soluble Dl:V5:His or N21-30:V5:His. The conditions noted are these: both partners purified.

The target in another experiment is T3, N21-30:V5:His (Drosophila, UniProt P07207 827-1224).
T3 construct: source: Drosophila Schneider cells, transfected, secreted; purified from conditioned medium (ProBond resin)
T3 sequence (looked up): T2 sequence (looked up)
The experiment is described as above. To be noted: both partners purified.

For experiment [3], the target named is T4, N11-20:V5:His (Drosophila, UniProt P07207 447-832).
T4 chain: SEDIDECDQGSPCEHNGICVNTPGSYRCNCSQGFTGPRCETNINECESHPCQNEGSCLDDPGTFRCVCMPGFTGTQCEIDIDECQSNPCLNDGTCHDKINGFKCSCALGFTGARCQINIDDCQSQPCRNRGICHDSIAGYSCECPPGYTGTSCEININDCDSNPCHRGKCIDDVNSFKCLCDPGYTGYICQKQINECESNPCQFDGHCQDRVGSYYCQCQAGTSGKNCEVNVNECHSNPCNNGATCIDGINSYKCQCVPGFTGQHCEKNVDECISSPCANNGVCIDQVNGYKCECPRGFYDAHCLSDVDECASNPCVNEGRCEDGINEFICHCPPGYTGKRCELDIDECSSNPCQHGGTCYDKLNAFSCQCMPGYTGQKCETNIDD
The experiment in a line: ELISA.

Experiment [4] addresses T4, N11-20:V5:His. The experiment in a line: ELISA.
In experiment [5] the target is T1, N11-14:V5:His. Nature of the experiment: ELISA.
In experiment [6] the target is T5, N11-14spl:V5:His (Drosophila, UniProt P07207 447-605, I578T).
T5 sequence: T1 chain with I132T
The experiment in a line: ELISA.

For experiment [7], the target named is T4, N11-20:V5:His. The experiment in a line: ELISA; pH 5.4.
The target of experiment [8] is T4, N11-20:V5:His. The experiment in a line: ELISA; pH 7.4.
Experiment [9] addresses T1, N11-14:V5:His. Nature of the experiment: ELISA.
The target of experiment [10] is T5, N11-14spl:V5:His. The experiment in a line: ELISA. The source holds these as a separate data set.
Experiment [11] concerns the target T4, N11-20:V5:His. Nature of the experiment: ELISA; 200 ng His-tagged protein adsorbed to a 96-well plate at 4°C overnight, blocked with 3% BSA; purified Fc fusion added in TBS (10 mM Tris-Cl pH 8.0, 150 mM NaCl, 1 mM CaCl2) for 2 h; detected with HRP anti-human IgG; half-maximal binding ('Kd') fitted with Prizm, said not to be a true Kd.
Experiment [12] concerns the target T2, N21-30:Fc. The experiment in a line: ELISA; as the plate assay, at pH 7.4 in citric acid/Na2HPO4 or Tris maleate/NaOH buffer in place of Tris pH 8.0. To be noted: both partners purified.

B1: N26-30:Fc (Fc fusion)
chain: QTNDEDCTESSCLNGGSCIDGINGYNCSCLAGYSGANCQYKLNKCDSNPCLNGATCHEQNNEYTCHCPSGFTGKQCSEYVDWCGQSPCENGATCSQMKHQFSCKCSAGWTGKLCDVQTISCQDAADRKGLSLRQLCNNGTCKDYGNSHVCYCSQGYAGSYCQKEIDECQSQPCQNGGTCRDLIGAYECQCRQGFQGQNCELNIDD
modifications: Fc-dimerised (Fc left out); secreted from S2 cells, O-fucosylation predicted. The forward primer (Q-T-N-D-E-D-C) overlaps the reverse primer ending at Asp1025, so the printed Gln1000 is Gln1020
For orientation: Kd means the free concentration of one partner at which half of the binding sites on the other are occupied at equilibrium, for simple one-to-one binding. Read a low Kd as higher affinity. The molecule B1 registered a Kd with N11-14:V5:His [1] of 2.81 nM. This lies in the single-digit nanomolar range.

B2: N11-20:V5:His (domain or fragment, Drosophila, UniProt P07207 447-832, looked up)
chain: T4 chain
notes: also called EGF repeats 11-20 of the N extracellular domain; source: Drosophila Schneider cells, transfected, secreted; purified from conditioned medium (ProBond resin)
For B2, the binding result with N21-30:Fc [2] and in the experiment with N21-30:V5:His was “binds” throughout.

B3: N22-27:Fc (Fc fusion)
chain: KMDPCASNRCKNEAKCTPSSNFLDFSCTCKLGYTGRYCDEDIDECSLSSPCRNGASCLNVPGSYRCLCTKGYEGRDCAINTDDCASFPCQNGGTCLDGIGDYSCLCVDGFDGKHCETDINECLSQPCQNGATCSQYVNSYTCTCPLGFSGINCQTNDEDCTESSCLNGGSCIDGINGYNCSCLAGYSGANCQYKLNKCDSNPCLNGATCHEQNNEYTCHCPSGFTGKQCS
Molecule B3 had a Kd with N11-14:V5:His [1] of 12.6 nM.

B4: N21-30:Fc (Fc fusion)
chain: T2 sequence (looked up)
For the molecule B4, the Kd is 27.5 nM with N11-20:V5:His [3]; 5.42 nM with N11-14:V5:His [1]; 4.5 nM in the experiment with N11-20:V5:His [4]; 21.3 nM with N11-14:V5:His [5]; 28.9 nM with N11-14spl:V5:His [6]; 34 nM with N11-20:V5:His [7]. The molecule also returned a Kd with N11-20:V5:His [8] of 16.4 nM.

B5: Dl:Fc (Fc fusion)
chain: QVHSSGSFELRLKYFSNDHGRDNEGRCCSGESDGATGKCLGSCKTRFRVCLKHYQATIDTTSQCTYGDVITPILGENSVNLTDAQRFQNKGFTNPIQFPFSFSWPGTFSLIVEAWHDTNNSGNARTNKLLIQRLLVQQVLEVSSEWKTNKSESQYTSLEYDFRVTCDLNYYGSGCAKFCRPRDDSFGHSTCSETGEIICLTGWQGDYCHIPKCAKGCEHGHCDKPNQCVCQLGWKGALCNECVLEPNCIHGTCNKPWTCICNEGWGGLYCNQDLNYCTNHRPCKNGGTCFNTGEGLYTCKCAPGYSGDDCENEIYSCDADVNPCQNGGTCIDEPHTKTGYKCHCANGWSGKMCEEKVLTCSDKPCHQGICRNVRPGLGSKGQGYQCECPIGYSGPNCDLQLDNCSPNPCINGGSCQPSGKCICPAGFSGTRCETNIDDCLGHQCENGGTCIDMVNQYRCQCVPGFHGTHCSSKVDLCLIRPCANGGTCLNLNNDYQCTCRAGFTGKDCSVDIDECSSGPCHNGGTCMNRVNSFECVCANGFRGKQCDE
One may read the EC50 as the midpoint of the concentration-response curve. Low values mean an effect from little substance, high ones a need for much substance. Take B5: the Kd with N11-14:V5:His [9] came out at 16.6 nM; with N11-14spl:V5:His [10], 23.4 nM; in the experiment with N11-20:V5:His [3], 25.1 nM; with N11-20:V5:His [7], 4.58 nM; with N11-20:V5:His [8], 29.8 nM. Further, the EC50 with N11-20:V5:His [11] stood at 1.87 nM.

B6: N11-14:V5:His (domain or fragment, Drosophila, UniProt P07207 447-605, looked up)
chain: T1 chain
notes: also called N11-4:V5:His; EGF repeats 11-14; source: Drosophila Schneider cells, transfected, secreted; purified from conditioned medium (ProBond resin)
As to B6, the binding result with N21-30:Fc [12] is “binds”.

B7: N11-14spl:V5:His (domain or fragment, Drosophila, UniProt P07207 447-605, looked up)
chain: T1 chain with I132T
notes: Notch, Drosophila, EGF repeats 11-14 with the I578T change of the split (spl) allele in EGF repeat 14; limits as N11-14, Ser447 to Asp605; also called split mutant; source: Drosophila Schneider cells, transfected, secreted; purified from conditioned medium (ProBond resin)
Consider B7, for which the binding result with N21-30:Fc [12] is listed as “binds”.

B8: N21-25:Fc (Fc fusion)
chain: ETNIDDCVTNPCGNGGTCIDKVNGYKCVCKVPFTGRDCESKMDPCASNRCKNEAKCTPSSNFLDFSCTCKLGYTGRYCDEDIDECSLSSPCRNGASCLNVPGSYRCLCTKGYEGRDCAINTDDCASFPCQNGGTCLDGIGDYSCLCVDGFDGKHCETDINECLSQPCQNGATCSQYVNSYTCTCPLGFSGINCQTNDED
Regarding B8, the Kd came out at 2.77 nM with N11-14:V5:His [1] and 2.79 nM with N11-20:V5:His [4].

The record behind these values is article PMC2267168, “Competition between Delta and the Abruptex domain of Notch” (BMC Developmental Biology, 2008).
